Results published in the supplement of paper PMC12042874.
± gives the uncertainty stated by the source.

assay: amyloid nucleation score (Sup35N fusion, yeast selection) (log enrichment); library NNK1; higher = more nucleation; inactive = no reads after selection
Summary of the method: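 In psi-negative yeast, Sup35N fusions carrying peptides of 20 random codons were induced with 100 μM copper sulfate for 24 hours. The cells then grew 7 days at 30°C on medium lacking adenine and uracil, and plasmid inserts from input and output were Illumina-sequenced, excluding sequences with under 100 input reads. Nucleation score is the DiMSum log enrichment of output over input reads, centred on the mode score of non-aggregating sequences.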

Substance	amyloid nucleation score
IWNIVWNNLVYVNFSNLGGV	3.73 ± 0.08
IFGFVWDPKTNYMTGLFASI	-0.231 ± 0.5
YAKHFPVLRTCLLNSVWGQG	1.33 ± 0.57
HLNNCLTRRNWTRYFSRVAP	0.95 ± 0.58
TEGPSN	inactive
GICWLISCGRIVAGSSEQYV	0.924 ± 0.3
LSWFC	-0.504 ± 0.43
ITAFKRAKRSAGCW	-0.034 ± 0.25
ENDVSQPVRLTVVTRWSWYT	0.229 ± 0.53
RLNLSLSVR	0.517 ± 0.55
GDLGCVYSLFRSLFSSFTRS	0.111 ± 0.35
ETITKVVQQLSRLDKLSTYW	1.53 ± 0.26
LRTGQGHYDRVVGHRHNLCA	-1.42 ± 0.9
RFIWFLVYVNTCYARC	2.86 ± 0.25
TCSSLRSLLWSCVVRALLWT	-0.528 ± 1.2
NRFTHHSIR	1.19 ± 0.84
SCMMYQMCNWHERAPSTVLL	0.908 ± 0.58
VYFRCTWAISMFFYMSNAGW	1.35 ± 0.21
TCRCTKLTSAYMLRVWSVQF	-0.332 ± 0.55
FGLAGHFYNWNYIYTSSVWF	-0.021 ± 0.59
IANCQAGWGCRQA	0.315 ± 0.32
IGVVVWRPNLILRKEYLWRV	-0.858 ± 2.1

Substance	amyloid nucleation score
HIPNDARRLFGSMGVSRASA	-0.407 ± 1
RTSPPFNTVYYTGEYEIIEI	-0.353 ± 0.54
LNDPMAGRLNNVRSGCLDDV	-0.059 ± 0.43
SPEGWYFRTTWLVA	inactive
WLMVLATGAYAMHWVVTSSL	2.98 ± 0.069
MDSCFVLAHVAGNRMVLWNA	0.268 ± 0.43
TLMNHGRESLGWFD	-0.828 ± 0.66
EYLFLRRM	2.92 ± 0.089
RSYVVSPVNY	-1.18 ± 0.76
PLLVYIFNFHCYHLVNAMTV	2.2 ± 0.32
VDLNSGQSMNLGTYECRSNV	-1.49 ± 1.8
LYGPQSPGRSPVSTFGRGRF	0.321 ± 0.4
CPVGQTNCQDL	0.072 ± 0.51
SGRWLYVLVPICMPYVAELS	inactive
VIWSNWRRRVPEGPDERYKR	0.649 ± 0.46
PITILVVFNLQKY	6.242 ± 0.046
EIIET	0.534 ± 0.34
QRRYRDTAGLNRNIRNICSK	-0.257 ± 0.72
ACTGARCVRDQ	0.452 ± 0.45
SNSSVSW	0.717 ± 0.57
SSVCGKL	-0.211 ± 0.7
ALFESRPYTLSRERDKL	-0.302 ± 0.36

Substance	amyloid nucleation score
NGKEDKTCLWSVQPYCKSCE	-0.475 ± 1.2
VGEQPYFGVFTTRYVMARYA	0.487 ± 0.71
SCKVVILLPSVVKACLTVLP	0.474 ± 0.95
AWNRYIFIPTLEFTVLCMWC	6.139 ± 0.058
GRAEAKLY	-0.118 ± 0.31
TFTCVITSGCDLYPLLGHIS	0.9 ± 0.4
GSLWFRLGEFARTNFFNSVF	0.05 ± 0.26
IPPNSWMKSRNCTKLTARVY	-0.312 ± 1.4
MSVNSRNMNKYLFWNKL	-0.029 ± 0.3
ISALRFSTLRSCGAGPGVAS	-0.859 ± 1.2
LRKPKIYVTNRPTQGYGSTA	0.169 ± 0.55
LSGVCRIFH	0.584 ± 0.35
CFGASNSLLFVDSSAWGSSG	-0.242 ± 0.5
ENIDVENQLVYLFKICFGSM	3.09 ± 0.12
PFYSETDDSRYIDVRRVFCF	inactive
RTSSWPTLTHEALLRSGDLC	-0.637 ± 0.48
DMTAVYLFVTVYSYDLSC	0.569 ± 0.14
DTNIHRVEFLISFFGRELSQ	inactive
GFGPDQFITESDSFTSAFVS	0.125 ± 0.55
CTFKAWRLYSVNKDSRIVLK	-0.576 ± 1.1
NSIPLDLSNTLLLCARC	-0.02 ± 0.49
SFAVHVGVANSSGSCLMLGG	0.277 ± 0.3

Substance	amyloid nucleation score
RVQCNNMKVCGITIFLMRS	6.516 ± 0.049
GCHLVWFGVVYRQQWSFGVD	0.563 ± 0.57
CCRGCPERLLSWGGSPRATE	-0.334 ± 0.39
FVGNPSRRWLCHCKFIAGGH	0.137 ± 0.38
KDVMYTYFIAISDLGIRNPL	1.3 ± 0.56
NFINVVVWQEGYLRVIHTSV	0.537 ± 1.1
IIINGVL	0.029 ± 0.62
NTYGAGSLGITWQQVCLTYE	0.767 ± 0.62
CKVQLSQDRAVECGVNHGVY	-0.01 ± 0.44
YWVYSSRGCA	inactive
NREVYKMLLGCFSIHISCNR	inactive
SDDHVTVYNRDARRSRSCCL	inactive
QRIVTG	-0.123 ± 0.59
LTRAWSGWYVTFMGGEILIR	-0.118 ± 0.49
GGYVWVTTSGPVFIQVMNMW	8.136 ± 0.06
WYRVCV	-0.603 ± 0.65
QWRFKVRVHVEVSSSGVCSI	inactive
TLGLVDERHEDWIVLDYTLG	0.422 ± 0.53
YGYGY	-0.217 ± 0.23
